From patent publication US5534407

Key:
[1] = system: RecA protein (Escherichia coli); conditions: renaturation t1/2 with about 500 uM ATP; little renaturation without ATP; 10 mM MgCl2, 50 mM NaCl, 37 C
[2] = system: T4 gene 32 protein (Bacteriophage T4); conditions: renaturation t1/2; about 1% annealed after 60 min; 10 mM MgCl2, 50 mM NaCl, 37 C
[3] = system: T7 gene 2.5 protein (Bacteriophage T7); conditions: renaturation t1/2 by agarose gel annealing assay; 10 mM MgCl2, 50 mM NaCl, pH 7.5, 37 C, no ATP; none >30,000 min

## 167-nt fragment (primer-extended to XmnI site) plus circular M13 mGP1-2 ssDNA
[1]
  activity: 60 min
[2]
  activity: 3000 min
[3]
  activity: 1 min
